± gives the uncertainty stated by the source.
Assay: protein stability index of a GFP-peptide fusion (yeast GPS) (PSI 1-4); higher = more stable; sorted into four equal gates, so the index is relative within each strain
Outline: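 Tiled 17-residue yeast protein peptides were fused downstream of GFP in a plasmid that also expresses Cherry, and the pooled library was carried in yeast. Mid-log cultures in leucine-free medium were sorted into four equal gates by GFP/Cherry fluorescence ratio, and plasmids from each gate were PCR-amplified and Illumina-sequenced, with reads assigned to strains by barcodes. The protein stability index for each peptide was each gate's read frequency times its gate number, summed.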

Sequence | protein stability index (doa10∆) | protein stability index (pdr5∆) | protein stability index (san1∆) | protein stability index (ubr1∆)
CPYCYKKRREYFPEGYN [SIR2] | 2.43 ± 0.11 | 2.41 ± 0.16 | 2.61 ± 0.2 | 2.75 ± 0.069
DDYSNEDNEMLEDLFSY [YJR042W/NUP85] | 2.01 ± 0.15 | 1.94 ± 0.15 | 1.76 ± 0.18 | 1.66 ± 0.073
DALEMQWRYLYDTQLKV [ARP7] | 1.75 ± 0.053 | 1.55 ± 0.046 | 1.41 ± 0.088 | 1.53 ± 0.05
KPKKPKGRAYKRLLYTR [RPS30A] | 3.13 ± 0.098 | 2.79 ± 0.11 | 3.02 ± 0.086 | 2.99 ± 0.055
GSRVLIFSQMSRLLDIL [ISW2] | 3.27 ± 0.15 | 3.46 ± 0.11 | 3.18 ± 0.11 | 3.58 ± 0.08
SYEVEHVIQIPLNKPLL [TAF14] | 2.46 ± 0.069 | 2.66 ± 0.045 | 2.52 ± 0.06 | 2.51 ± 0.055
EYNKPNSEKFVFLLTTR [ISW2] | 3.09 ± 0.19 | 2.58 ± 0.099 | 1.59 ± 0.083 | 2.43 ± 0.12
ITLVEPEILRFKVYEPL [RPS16A] | – | 3.25 ± 0.21 | 2.54 ± 0.22 | 2.75 ± 0.074
IYAKYGAKGSTLIVVPF [FAS2] | 2.4 ± 0.072 | 2.72 ± 0.073 | 2.34 ± 0.11 | 2.13 ± 0.05
EEQEKINSAPDFTQEDE [ISW2] | 3.14 ± 0.11 | 3.56 ± 0.088 | 3.39 ± 0.081 | 3.55 ± 0.067
PSTDKNEKKTETNAKPF [YLR335W/NUP2] | 3.32 ± 0.11 | 3.28 ± 0.094 | 3.34 ± 0.044 | 3.33 ± 0.096
VAALRFTAGARAKIVKA [RPL18A] | 1.31 ± 0.089 | 1.4 ± 0.069 | 1.24 ± 0.2 | 1.18 ± 0.1
VKKPTFTFGQSTSENKI [YOR098C/NUP1] | 3.02 ± 0.21 | 2.87 ± 0.21 | 3.14 ± 0.2 | 3.45 ± 0.14
TELMNRSPLVTPMDESS [SRP72] | 2.52 ± 0.071 | 2.58 ± 0.07 | 3.03 ± 0.076 | 2.59 ± 0.062
FSNRFLPVASPFHSHLL [FAS1] | 2.5 ± 0.13 | 2.98 ± 0.11 | 3.19 ± 0.27 | 2.76 ± 0.098
TVLVIDNSEYSRNGDFP [RPN10] | 2.44 ± 0.058 | 2.73 ± 0.066 | 1.48 ± 0.098 | 2.44 ± 0.041
VQYLRSVQDLGGSATAR [YML031W/NDC1] | 2.14 ± 0.13 | 1.5 ± 0.069 | 1.53 ± 0.22 | 1.57 ± 0.064
RKRPVPKGATYGKPTNQ [RPL15A] | – | 3.29 ± 0.19 | 3.58 ± 0.19 | 3.45 ± 0.14
STGLKSASDALKGRVVE [RPS1A] | 3.29 ± 0.078 | 3.31 ± 0.071 | 3.48 ± 0.044 | 3.37 ± 0.084
RKVSGPRALQPSQFGML [RET1] | 2.36 ± 0.089 | 1.67 ± 0.059 | 2.46 ± 0.12 | 2.56 ± 0.09
RVGVKLKFNSTEYRGTL [SMX3] | 3.18 ± 0.11 | 3.17 ± 0.07 | 2.87 ± 0.09 | 3.02 ± 0.094
TCAVGVKGKNCVVLGCE [PRE6] | – | – | – | 3.42 ± 0.24
KKRSHHGKASRQQYYSG [SNF6] | 3.05 ± 0.088 | 3.11 ± 0.062 | 2.92 ± 0.065 | 2.98 ± 0.079
MRSTSILTEHLGYPPIS [MTW1] | 2.9 ± 0.076 | 2.74 ± 0.065 | 2.87 ± 0.062 | 3.06 ± 0.091
AETKSYDSRGVGEMKLL [YLR335W/NUP2] | 1.94 ± 0.064 | 2.1 ± 0.11 | 2.25 ± 0.097 | 2.44 ± 0.079
AFRRIMISEVPSVAAEY [RPC40] | 1.35 ± 0.052 | 1.49 ± 0.056 | 1.51 ± 0.079 | 1.25 ± 0.049
VFYRGMTMQVAVPRDEL [FAS1] | 1.62 ± 0.056 | 1.86 ± 0.066 | 2 ± 0.072 | 1.97 ± 0.12

Sequence | protein stability index (doa10∆) | protein stability index (pdr5∆) | protein stability index (san1∆) | protein stability index (ubr1∆)
QQMHEVRKELRGRAVVL [RPP0] | 3.01 ± 0.14 | 3.05 ± 0.13 | 3.27 ± 0.099 | 2.58 ± 0.073
LNFKDDKKYKGLTTVWL [REC8] | 2.71 ± 0.064 | 2.77 ± 0.14 | 2.64 ± 0.13 | 2.69 ± 0.066
NDFTTKLINIKKFDISN [MED1] | 1.67 ± 0.08 | 1.47 ± 0.096 | 1.56 ± 0.28 | 2.28 ± 0.27
LTFQPQQQTNALNGIDI [GRR1] | 2.84 ± 0.067 | 3.07 ± 0.075 | 3.02 ± 0.082 | 3.1 ± 0.056
LVIGIFKRDLLREKEDK [YJL039C/NUP192] | 2.95 ± 0.098 | 2.28 ± 0.11 | 2.86 ± 0.069 | 2.34 ± 0.1
ARDAPTKISTLAVKVHG [QCR2] | 1.4 ± 0.11 | 2.09 ± 0.14 | 1.38 ± 0.14 | 1.09 ± 0.045
ITNTDETITTKRVPNPN [SWP82] | 3.09 ± 0.077 | 3.25 ± 0.098 | 3.13 ± 0.078 | 3.21 ± 0.082
VDKNGAHLYMLEPSGSY [PRE10] | 2.04 ± 0.057 | 2.19 ± 0.064 | 2.92 ± 0.063 | 2.52 ± 0.058
VFERFKTKILEVAIRDV [IRR1] | 1.77 ± 0.081 | 1.75 ± 0.09 | 1.43 ± 0.14 | 1.67 ± 0.072
KKSKLISLYLLNLLSQN [RPN12] | 1.31 ± 0.057 | 1.97 ± 0.062 | 1.26 ± 0.094 | 1.84 ± 0.046
SVVRGNTFKVLSKFFFF [COB] | 2.11 ± 0.065 | 2.2 ± 0.13 | 2.44 ± 0.093 | 1.83 ± 0.069
SSLVQKGLETIDNGAES [RPC53] | 2.65 ± 0.26 | 3.02 ± 0.21 | – | –
FMTKLLEVANDLQLLYV [IRR1] | 1.72 ± 0.11 | 1.98 ± 0.075 | 2.23 ± 0.12 | 1.24 ± 0.045
GCLHKGKLISNLSSTPM [YML031W/NDC1] | – | 1.81 ± 0.16 | – | 2.05 ± 0.19
TIYYVDSDGTRLKGDIF [PRE2] | 3.24 ± 0.067 | 3.24 ± 0.065 | 2.97 ± 0.096 | 3.16 ± 0.057
LAMNDDDFLSKKRKAGR [SNF2] | 3.41 ± 0.11 | 3.58 ± 0.084 | 3.16 ± 0.1 | 3.52 ± 0.091
FKKLTKDIFRYMQRTVE [RPB2] | 1.63 ± 0.045 | 1.4 ± 0.034 | 1.25 ± 0.087 | 1.36 ± 0.033
TENDIKALQSIGQLIGE [RPT4] | 3.21 ± 0.082 | 3.06 ± 0.095 | 2.74 ± 0.099 | 3.23 ± 0.045
QDKEKIDNLKDTLKENA [ITC1] | 2.87 ± 0.046 | 3.07 ± 0.055 | 3.02 ± 0.043 | 3.09 ± 0.04
ECLQAYIFFGPIYYQKL [RET1] | 2.54 ± 0.077 | 2.65 ± 0.071 | 2.24 ± 0.1 | 2.72 ± 0.05
IRPTELRLPFSAAMSID [PRP8] | 1.93 ± 0.049 | 1.98 ± 0.037 | 1.78 ± 0.057 | 2.24 ± 0.037
LIESLNTIRQNVTSSGD [YML103C/NUP188] | 1.13 ± 0.064 | 1.27 ± 0.096 | 1.17 ± 0.23 | 1.21 ± 0.081
VVIDAKDHLLGRLASTI [RPL16B] | 1.33 ± 0.066 | 1.25 ± 0.07 | 1.17 ± 0.12 | 1.35 ± 0.078
IEWCSRCNDNLMRSCFY [YJL039C/NUP192] | 3.17 ± 0.089 | 2.68 ± 0.085 | 2.9 ± 0.067 | 2.69 ± 0.083
RAGVCEYNEDSRLCTPI [RPN13] | 2.29 ± 0.12 | 1.86 ± 0.078 | 1.41 ± 0.2 | 2.84 ± 0.072
QRCKSNAISLQLKYDTS [YIL149C/MLP2] | 1.78 ± 0.062 | 1.66 ± 0.054 | 1.86 ± 0.12 | 1.79 ± 0.047
TYGFSILDIVINNPVNL [FAS1] | 2.07 ± 0.087 | 2.37 ± 0.075 | 2.53 ± 0.092 | 3.02 ± 0.074

Sequence | protein stability index (doa10∆) | protein stability index (pdr5∆) | protein stability index (san1∆) | protein stability index (ubr1∆)
KDPVDFVRQAAMIALSM [RPN2] | 1.42 ± 0.082 | 2.21 ± 0.14 | 1.81 ± 0.17 | 1.97 ± 0.13
NARKVVGASVVVVKNWG [RPS12] | 2.83 ± 0.15 | 2.69 ± 0.13 | 2.12 ± 0.24 | 2.67 ± 0.084
KHGAVHMSTYLKIYKVG [RPL21B] | 1.65 ± 0.042 | 1.52 ± 0.043 | 1.9 ± 0.062 | 1.74 ± 0.054
SSGDFDDNNNNNNNNNN [GRR1] | 3.11 ± 0.06 | 3.18 ± 0.057 | 3.22 ± 0.063 | 3.04 ± 0.046
RLQGIKLLDNIQEYQLC [COR1] | 2.46 ± 0.13 | 2.24 ± 0.092 | 2.06 ± 0.13 | 2.34 ± 0.063
RRRDGVFLYFEDNAGVI [RPL23A] | 2.68 ± 0.13 | 2.83 ± 0.069 | 2.37 ± 0.11 | 2.9 ± 0.056
YRFYEYIYSQETKSWIN [MED1] | 1.7 ± 0.065 | 1.93 ± 0.06 | 1.53 ± 0.11 | 1.82 ± 0.042
FNKNLGKGPGCGFWQPA [PRP8] | 3.18 ± 0.16 | 3.25 ± 0.15 | 3.39 ± 0.14 | 3.54 ± 0.075
FKIHTAKVKKTGEFDFE [RPT4] | 2.3 ± 0.11 | 3.06 ± 0.12 | 2.29 ± 0.17 | 2.81 ± 0.12
SKATGAPSANQGDEALS [RTT102] | 3.28 ± 0.12 | 3.32 ± 0.1 | 3.13 ± 0.1 | 3.14 ± 0.24
SYRNGMASYMLNSFAFE [YJR042W/NUP85] | 2.29 ± 0.09 | 2.45 ± 0.11 | 2.6 ± 0.1 | 3.01 ± 0.084
NTVDGDLLKLVHLSNGY [FAS1] | 2.86 ± 0.07 | 2.52 ± 0.056 | 2.31 ± 0.076 | 2.46 ± 0.064
NLDAAAAGTSQARTATL [RPC10] | 2.65 ± 0.17 | 3.15 ± 0.15 | 2.73 ± 0.1 | 2.86 ± 0.096
IGMSLLMRTFLYTLAQE [SIR3] | 1.82 ± 0.14 | 2.37 ± 0.083 | 1.83 ± 0.1 | 1.76 ± 0.11
LMTHITTDDEEEPIKKL [RET1] | 3.42 ± 0.27 | 3.41 ± 0.28 | – | 3.49 ± 0.17
YKDVSDLIRSESMLHLS [IRR1] | 2 ± 0.071 | 2.29 ± 0.054 | 2.11 ± 0.093 | 2.01 ± 0.043
NMMDAISFVLGVRSNHL [SMC1] | 2.28 ± 0.063 | 2.58 ± 0.079 | 2.77 ± 0.067 | 2.66 ± 0.064
MMMQQQLKNVQLDSYLV [MED2] | 2.21 ± 0.037 | 2.45 ± 0.061 | 1.69 ± 0.079 | 2.17 ± 0.032
DEDIITIFKYLTDKDAF [CDC53] | 2.91 ± 0.14 | 3.15 ± 0.11 | 3.21 ± 0.061 | 3.19 ± 0.059
NPVTLNEDSKAFHTAVL [NUT1] | 2.81 ± 0.057 | 2.96 ± 0.076 | 2.82 ± 0.075 | 2.41 ± 0.059
RNNVANKQPRNESFNRR [YAR002W/NUP60] | 3.04 ± 0.088 | 3.41 ± 0.18 | 2.31 ± 0.12 | 3.24 ± 0.14
LQPFYSQPTAAGGPDMT [DSN1] | 1.54 ± 0.049 | 1.51 ± 0.047 | 1.88 ± 0.077 | 1.62 ± 0.039
PLRENTNVLDVKDKEED [YDL116W/NUP84] | 3.07 ± 0.082 | 3.11 ± 0.1 | 3.25 ± 0.065 | 2.99 ± 0.11
NNSALSNVNSDIYFKLK [RPT3] | 3.12 ± 0.14 | 2.96 ± 0.12 | 3.27 ± 0.14 | 3.25 ± 0.073
NIEEMARVILYLKNVLF [SIN4] | 2.23 ± 0.075 | 2.31 ± 0.079 | 2.01 ± 0.11 | 2.05 ± 0.037

Source: the supplement of paper PMC9732359
